Each block holds one molecule with its values, some of them ahead of it.
Key:
ThdF [1] = target: T1, ThdF (Streptomyces albogriseolus, UniProt A0A1B1V585); assay: fluorescence anisotropy; crystal structures ([…] and […] Å) with two FAD per chain; format: binding
T1 construct: apoThdF (full length) for Kd; elastase-digested ThdF, residues about 7-167 built, for crystals
T1 sequence (A0A1B1V585 1-193): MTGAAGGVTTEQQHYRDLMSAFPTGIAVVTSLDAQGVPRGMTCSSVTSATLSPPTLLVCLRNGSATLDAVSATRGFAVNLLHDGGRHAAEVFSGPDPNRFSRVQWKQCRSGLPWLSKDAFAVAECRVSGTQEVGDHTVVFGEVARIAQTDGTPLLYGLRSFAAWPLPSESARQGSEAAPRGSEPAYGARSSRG

ThdF [2] = target: T2, ThdF (Streptomyces albogriseolus, UniProt A0A1B1V585); assay: steady-state inhibition kinetics (NADH turnover at […] nm); format: biochemical
[3] = target: ThdF after in situ proteolysis with elastase, as crystallised (crystal forms 1 and 2) (Streptomyces albogriseolus); assay: crystal structure; ThdF with elastase (in situ proteolysis), sitting drop, 20 °C; crystal form 1 (P212121) and form 2 (P21) with two FAD per chain, and form 1 soaked with NADH and dithionite; four molecules per asymmetric unit
ThdF [4] = target: T2, ThdF; assay: steady-state product inhibition kinetics; format: biochemical
[5] = target: the molecule itself; assay: crystal structure; full-length ThdF without protease, initial screening, 2.9 Å; not fully refined and not deposited
[6] = substrate: Cc1cc2nc3c(=O)[nH]c(=O)nc-3n(C[C@H](O)[C@H](O)[C@H](O)COP(=O)(O)O)c2cc1C; assay: steady-state kinetics, KM as variable substrate; format: biochemical, Streptomyces albogriseolus; details: NADH
purified protein = substrate: NC(=O)C1=CN([C@@H]2O[C@H](COP(=O)(O)OP(=O)(O)OC[C@H]3O[C@@H](n4cnc5c(N)ncnc54)[C@H](O)[C@@H]3O)[C@@H](O)[C@H]2O)C=CC1; assay: purified protein

Kd (ThdF [1]): 6.8 ± 0.2 µM
Molecule: Cc1cc2nc3c(=O)[nH]c(=O)nc-3n(C[C@H](O)[C@H](O)[C@H](O)COP(=O)(O)OP(=O)(O)OC[C@H]3O[C@@H](n4cnc5c(N)ncnc54)[C@H](O)[C@@H]3O)c2cc1C [FAD]

Molecule: Nc1ncnc2c1ncn2[C@@H]1O[C@H](COP(=O)(O)O)[C@@H](O)[C@H]1O [AMP]
steady-state inhibition kinetics (NADH turnover at 340 nm) (ThdF [2]): The lines intersecting on the ordinate indicate competitive inhibition of NADH by AMP.

stoichiometry N [3]: 2
Molecule: ThdF after in situ proteolysis with elastase, as crystallised (crystal forms 1 and 2) (from UniProt A0A1B1V585 6-171) (domain or fragment)

Molecule: NC(=O)c1ccc[n+]([C@@H]2O[C@H](COP(=O)([O-])O)[C@@H](O)[C@H]2O)c1 [NMN]
steady-state inhibition kinetics (NADH turnover at 340 nm) (ThdF [2]): The NADH-dependent measurement with NMN showed intersecting lines on the ordinate, confirming competitive inhibition toward NADH

Molecule: NC(=O)c1ccc[n+]([C@@H]2O[C@H](COP(=O)([O-])OP(=O)(O)OC[C@H]3O[C@@H](n4cnc5c(N)ncnc54)[C@H](O)[C@@H]3O)[C@@H](O)[C@H]2O)c1 [NAD^+]
steady-state product inhibition kinetics (ThdF [4]): For both substrates, NAD^+ was found to produce a noncompetitive inhibition pattern

B1: NADH-dependent flavin reductase ThdF from Streptomyces albogriseolus, full length, His6-tag removed by TEV protease (enzyme, UniProt A0A1B1V585 1-193, looked up)
chain: MTGAAGGVTTEQQHYRDLMSAFPTGIAVVTSLDAQGVPRGMTCSSVTSATLSPPTLLVCLRNGSATLDAVSATRGFAVNLLHDGGRHAAEVFSGPDPNRFSRVQWKQCRSGLPWLSKDAFAVAECRVSGTQEVGDHTVVFGEVARIAQTDGTPLLYGLRSFAAWPLPSESARQGSEAAPRGSEPAYGARSSRG
notes: flavin reductase ThdF of the thienodoline biosynthetic gene cluster, Streptomyces albogriseolus; 193 residues (truncation to 1-168 removed amino acids 169-193); residual amino acids from TEV protease digestion are left at the N terminus; Codon-optimised synthetic gene in pETM-11; copurifies with FAD (occupancy about 124%); the PDB entries 9fd4-9fd6 come from this protein after elastase digestion; …
stoichiometry N [5]: 2 | Km [6]: 0.28 ± 0.07 µM | kcat [6]: 0.2 ± 0.08 s⁻¹

B2: ThdF (Streptomyces albogriseolus) (protein)
chain: GGVTTEQQHYRDLMSAFPTGIAVVTSLDAQGVPRGMTCSSVTSATLSPPTLLVCLRNGSATLDAVSATRGFAVNLLHDGGRHAAEVFSGPDPNRFSRVQWKQCRSGLPWLSKDAFAVAECRVSGTQEVGDHTVVFGEVARIAQTDGTPLLYGLRSFAAWPLPSESA
Km (purified protein): 19.5 ± 5.6 µM | kcat (purified protein; FAD binds instead of the stacked FAD, R16 contacts the NMN ribose, H136 of the GDH motif the nicotinamide, S48 of the second protomer): 0.26 s⁻¹

Source: publication PMC11795597, “The NADH-dependent flavin reductase ThdF follows an ordered sequential mechanism though crystal structures reveal two FAD molecules in the active site” (The Journal of Biological Chemistry, 2024)
